Read-outs that look alike come from different tables or passages of the source.

Here are results for 3 substances from patent US20100256056A1.

Assay [1] has as its target human GLP-1 (hGLP-1) receptor (human) (UniProt P43220).
The target is the same in assay [2]. This is another data set of the same source.

Sequence of human GLP-1 (hGLP-1) receptor (human) (P43220 24-463): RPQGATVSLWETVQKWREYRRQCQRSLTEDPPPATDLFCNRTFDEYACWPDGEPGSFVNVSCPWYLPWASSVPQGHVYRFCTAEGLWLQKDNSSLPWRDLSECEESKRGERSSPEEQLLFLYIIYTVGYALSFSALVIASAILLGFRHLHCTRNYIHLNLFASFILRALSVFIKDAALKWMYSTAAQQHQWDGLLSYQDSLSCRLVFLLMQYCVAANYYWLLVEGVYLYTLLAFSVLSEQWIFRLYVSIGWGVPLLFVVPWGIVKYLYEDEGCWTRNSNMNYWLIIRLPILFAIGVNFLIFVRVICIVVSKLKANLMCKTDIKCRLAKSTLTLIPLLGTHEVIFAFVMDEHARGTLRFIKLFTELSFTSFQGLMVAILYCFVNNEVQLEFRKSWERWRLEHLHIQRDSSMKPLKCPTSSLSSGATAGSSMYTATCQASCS

In assay [1], “[Aib^2,29, Nle^14, Arg^30]Exendin-4(1-30)-NH2 (peptide)” gave a hGLP-1 cAMP* of 95.

For the substance “[Aib^2, Nle^14, β-Ala^29, Arg^30]Exendin-4(1-30)-NH2 (peptide)”, the hGLP-1 cAMP* in assay [2] is 90.

In the case of “[Aib^2, Nle^14]Exendin-4(1-39)-NH2 (peptide)”, the hGLP-1 cAMP* in assay [2] came to 62.
